Reference: article PMC12549904 (Communications Biology, 2025)

Biological target: Biotinylated RpoS (S. Typhimurium ATCC 14028S, UniProt D0ZVL4 1-330, biotin (EZ-Link-Biotin; sites not stated))
Assay: BLI

Chain of Biotinylated RpoS (D0ZVL4 whole entry): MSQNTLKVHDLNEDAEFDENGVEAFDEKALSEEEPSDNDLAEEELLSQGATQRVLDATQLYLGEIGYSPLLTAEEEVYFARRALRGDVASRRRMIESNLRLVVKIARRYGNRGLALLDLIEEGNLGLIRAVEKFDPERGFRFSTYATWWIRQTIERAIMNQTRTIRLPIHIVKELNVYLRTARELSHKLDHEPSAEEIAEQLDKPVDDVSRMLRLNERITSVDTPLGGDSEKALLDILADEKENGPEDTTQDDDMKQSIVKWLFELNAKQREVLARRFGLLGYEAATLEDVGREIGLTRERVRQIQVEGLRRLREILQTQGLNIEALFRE

B1: MicN (purified, His-tag cleaved) (natural protein, S. Typhimurium ATCC 14028S)
chain: MKEGFYWIQHNGRVQVAYYTHGVTEDLETGQTIIGVWHLTQGDDICHNGEAEILAGPLEPPI
Work on B1 yielded a Kd of 43.6 nM.
